In one assay the target is T1, human IL-17FF (human, UniProt Q96PD4 31-163).
T1 sequence: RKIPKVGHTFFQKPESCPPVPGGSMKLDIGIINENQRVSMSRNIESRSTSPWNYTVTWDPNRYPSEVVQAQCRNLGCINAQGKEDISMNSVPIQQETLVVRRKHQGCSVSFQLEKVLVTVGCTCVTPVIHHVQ
The experiment in a line: cell-based or functional assay.

Assay [1] has as its target T2, human IL-17AF heterodimer (human, UniProt Q16552 24-155; Q96PD4 31-163, limits assumed).
T2 sequence 1: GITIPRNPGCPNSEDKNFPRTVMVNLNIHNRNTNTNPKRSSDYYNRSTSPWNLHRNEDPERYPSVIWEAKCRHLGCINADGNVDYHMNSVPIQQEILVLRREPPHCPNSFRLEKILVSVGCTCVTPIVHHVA
T2 sequence 2: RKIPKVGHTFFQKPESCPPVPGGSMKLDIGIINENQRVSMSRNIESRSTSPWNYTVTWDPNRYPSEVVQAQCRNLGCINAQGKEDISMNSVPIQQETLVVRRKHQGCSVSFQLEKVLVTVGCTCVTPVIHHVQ
The experiment in a line: cell-based or functional assay.

Another assay concerns the target T3, cynomolgus monkey IL-13 (cynomolgus monkey, UniProt Q5I6E4 19-132 (Macaca thibetana entry), limits assumed).
T3 construct: also called cyno IL-13
T3 chain: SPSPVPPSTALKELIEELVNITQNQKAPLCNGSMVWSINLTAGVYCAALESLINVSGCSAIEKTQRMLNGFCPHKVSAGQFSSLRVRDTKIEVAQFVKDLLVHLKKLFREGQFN
The experiment in a line: SPR (BIAcore T200), antibody captured by anti-human Fc on CM5 chip, cytokine injected, 25 C, 1:1 Langmuir model. Here is the method:
(§1) Binding affinities of the anti-IL-17/anti-IL-13 bispecific antibody against human and cynomolgus monkey IL-13 cytokines were measured with a BIAcore™-T200 instrument. Anti-IL-13 antibody was captured by mouse anti-human Fc antibody (GE Healthcare, cat #BR-1008-39) coated on CM5 biosensor chips to achieve approximately 500 response units (RU). Four-fold serial dilutions (50 nM to 49 pM) of human IL-13, human IL-13R130Q (a common IL-13 variant associated with allergy and asthma, see Vladich et al., 2005, J. Clin Invest., 115:747-754), and cyno IL-13 were injected in FIBS-P buffer (GE Healthcare) at 25° C. with a flow rate of 30 μl/min. Association rates (kₒₙ) and dissociation rates (koff) were calculated using a simple one-to-one Langmuir binding model (BIAcore T200 Evaluation Software version 2.0). The equilibrium dissociation constant (KD) was calculated as the ratio koff/kₒₙ.
(In general: In SPR one partner is held on a chip, and binding of the other changes the refractive index at the surface.)

A further assay concerns the target T4, human IL-13 R130Q (human, UniProt P35225 35-146, limits assumed).
T4 construct: Common IL-13 variant
Described as above. Here is the method: as §1

The target of a further assay is T5, human IL-13 (human, UniProt P35225 35-146, limits assumed).
T5 construct: also called recombinant human IL-13
The description is as above. Here is the method:
as §1

In another assay the target is T6, human IL-17AA (human, UniProt Q16552 20-155, limits assumed).
T6 construct: Bought from R&D Systems, cat #317-ILB-050; also called IL-17A homodimer
T6 sequence: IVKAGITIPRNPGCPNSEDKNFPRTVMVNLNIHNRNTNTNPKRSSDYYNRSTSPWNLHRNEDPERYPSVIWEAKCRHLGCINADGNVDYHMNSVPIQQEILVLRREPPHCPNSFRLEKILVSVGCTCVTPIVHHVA
Briefly: SPR (BIAcore T200), bispecific antibody captured by anti-human Fc on CM5 chip, cytokine injected, 25 C, 1:1 Langmuir model. As to the method:
(§2) Binding affinities of anti-IL-17/anti-IL-13 bispecific antibody against various IL-17 cytokines were measured by Surface Plasmon Resonance (SRP) using a BIAcore™-T200 instrument. Anti-IL-17/anti-IL-13 bispecific antibody was captured by mouse anti-human Fc antibody (GE Healthcare, cat #BR-1008-39) coated on CM5 biosensor chips to achieve approximately 500 response units (RU). For kinetics measurements, five-fold serial dilutions (20 nM to 32 pM) of human IL-17AA (R&D Systems, cat #317-ILB-050), human IL-17AF heterodimer, human IL-17FF (R&D Systems, cat #1335-IL-025/CF), cyno IL-17AA, cyno IL-17AF, and cyno IL-17FF were injected in HBS-P buffer (GE Healthcare) at 25° C. with a flow rate of 30 μl/min. Association rates (kₒₙ) and dissociation rates (koff) were calculated using a simple one-to-one Langmuir binding model (BlAcore T200 Evaluation Software version 2.0). The equilibrium dissociation constant (KD) was calculated as the ratio koff/kₒₙ.

The next assay has as its target T7, cyno IL-17AA (cynomolgus monkey, UniProt A0A2K5TTB0 24-155).
T7 construct: Recombinant protein in the SPR assay; also called cynomolgus monkey IL-17AA; IL-17A homodimer (cynomolgus monkey)
T7 sequence: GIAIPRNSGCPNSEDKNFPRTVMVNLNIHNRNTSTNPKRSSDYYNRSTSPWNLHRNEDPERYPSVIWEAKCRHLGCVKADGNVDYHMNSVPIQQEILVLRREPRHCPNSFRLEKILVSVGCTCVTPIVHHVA
The description is as above. As to the method: as §2

T5 sequence (P35225 other isoform, or with tags, fused parts or gaps limits assumed): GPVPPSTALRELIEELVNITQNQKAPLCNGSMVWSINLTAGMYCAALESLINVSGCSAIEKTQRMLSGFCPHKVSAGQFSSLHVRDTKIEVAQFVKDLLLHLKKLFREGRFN
T4 sequence (P35225 35-146 limits assumed, stated change not applied): as the sequence (P35225 other isoform, or with tags, fused parts or gaps limits assumed) above, with R110Q counted along it

B1: Parental anti-IL17 antibody (antibody, V domains shown)
VH: EVQLVESGGGLVQPGRSLRLSCAASGFTFDDYAMHWVRQAPGKGLEWVSGINWSSGGIGYADSVKGRFTISRDNAKNSLYLQMNSLRAEDTALYYCARDIGGFGEFYWNFGLWGRGTLVTVSS
VL: not shown
Regarding B1, the “IC90 (molar ratio), inhibition of IL-17FF-induced G-CSF expression in normal human foreskin fibroblasts (ELISA)” value with human IL-17FF is approximately 1 molar ratio. Besides, the “IC90 (molar ratio), inhibition of IL-17AF-induced G-CSF expression in normal human foreskin fibroblasts (ELISA)” value in assay [1] is approximately 1 molar ratio.

B2: anti-IL-13/IL-17 bispecific antibody (bispecific antibody, human IgG4 S228P)
heavy 1: not shown
VL 1: DIVLTQSPDSLSVSLGERATINCRASKSVDSYGNSFMHWYQQKPGQPPKLLIYLASNLESGVPDRFSGSGSGTDFTLTISSLQAEDVAVYYCQQNNEDPRTFGGGTKVEIKR
heavy 2: EVQLVESGGGLVQPGRSLRLSCAASGFTFDDYAMHWVRQAPGKGLEWVSGINWSSGGIGYADSVKGRFTISRDNAKNSLYLQMNSLRAEDTALYYCARDIGGFGEFYWNFGLWGRGTLVTVSSASTKGPSVFPLAPCSRSTSESTAALGCLVKDYFPEPVTVSWNSGALTSGVHTFPAVLQSSGLYSLSSVVTVPSSSLGTKTYTCNVDHKPSNTKVDKRVESKYGPPCPPCPAPEFLGGPSVFLFPPKPKDTLMISRTPEVTCVVVDVSQEDPEVQFNWYVDGVEVHNAKTKPREEQFNSTYRVVSVLTVLHQDWLNGKEYKCKVSNKGLPSSIEKTISKAKGQPREPQVYTLPPSQEEMTKNQVSLSCAVKGFYPSDIAVEWESNGQPENNYKTTPPVLDSDGSFFLVSRLTVDKSRWQEGNVFSCSVMHEALHNHYTQKSLSLSLGK
VL 2: not shown
notes: Knobs-into-holes human IgG4; also called anti-IL-17/anti-IL-13 bispecific antibody; anti-IL-13/IL-17 IgG4 bispecific antibody
As for B2, the Kd (usually the free concentration of one partner at which half of the binding sites on the other are occupied at equilibrium, for simple one-to-one binding) in the assay with cynomolgus monkey IL-13 is less than 0.001 nM; in the assay with human IL-13 R130Q, less than 0.001 nM; in the assay with human IL-13, 0.0355 nM; with human IL-17AA, 0.021 nM; with cyno IL-17AA, 0.033 nM. For the same molecule, the koff (in general, the rate constant with which the complex falls apart) was less than 1e-06 s⁻¹ with cynomolgus monkey IL-13; less than 1e-06 s⁻¹ in the assay with human IL-13 R130Q; 2.07e-05 s⁻¹ in the assay with human IL-13; 0.000118 s⁻¹ in the assay with human IL-17AA; 0.000291 s⁻¹ with cyno IL-17AA. Also, the kon (in general, a measure of how fast the partners come together) with cynomolgus monkey IL-13 is more than 1e+06 M⁻¹ s⁻¹; with human IL-13 R130Q, 864000 M⁻¹ s⁻¹; with human IL-13 it was 584000 M⁻¹ s⁻¹; with human IL-17AA, 5.55e+06 M⁻¹ s⁻¹; in the assay with cyno IL-17AA, 8.89e+06 M⁻¹ s⁻¹.
